For assay [1], the target named is P75 and trkA receptors on rat PC-12 cell membranes (rat) (UniProt P35739). Put plainly: cell-based or functional assay.
Assay [2] shares this target. As to the kind of experiment: radioreceptor assay, competitive binding against NGF standard on rat PC-12 cell membranes.

Sequence of P75 and trkA receptors on rat PC-12 cell membranes (rat) (P35739 33-799, chain 1 of 2): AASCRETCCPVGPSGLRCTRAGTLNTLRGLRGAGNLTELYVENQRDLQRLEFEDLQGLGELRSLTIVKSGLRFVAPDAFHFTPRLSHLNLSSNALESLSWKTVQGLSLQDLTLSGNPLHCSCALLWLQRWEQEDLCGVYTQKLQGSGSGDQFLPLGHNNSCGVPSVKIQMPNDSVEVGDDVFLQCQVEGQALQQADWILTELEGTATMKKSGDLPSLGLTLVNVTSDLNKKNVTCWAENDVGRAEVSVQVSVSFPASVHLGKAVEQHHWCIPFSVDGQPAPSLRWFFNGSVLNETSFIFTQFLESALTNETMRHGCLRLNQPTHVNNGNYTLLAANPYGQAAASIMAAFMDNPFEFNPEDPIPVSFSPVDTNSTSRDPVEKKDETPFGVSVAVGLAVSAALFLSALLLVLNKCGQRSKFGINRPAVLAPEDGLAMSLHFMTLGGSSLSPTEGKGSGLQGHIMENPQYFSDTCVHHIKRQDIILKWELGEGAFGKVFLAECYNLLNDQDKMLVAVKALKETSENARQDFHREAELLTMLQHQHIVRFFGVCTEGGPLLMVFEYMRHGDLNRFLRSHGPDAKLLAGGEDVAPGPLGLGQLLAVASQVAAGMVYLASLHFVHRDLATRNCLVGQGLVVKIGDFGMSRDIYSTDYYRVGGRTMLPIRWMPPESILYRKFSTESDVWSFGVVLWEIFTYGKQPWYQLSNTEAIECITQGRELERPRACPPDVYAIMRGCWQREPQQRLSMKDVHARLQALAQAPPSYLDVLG
Sequence of P75 and trkA receptors on rat PC-12 cell membranes (rat) (P07174 30-425, chain 2 of 2, further chain): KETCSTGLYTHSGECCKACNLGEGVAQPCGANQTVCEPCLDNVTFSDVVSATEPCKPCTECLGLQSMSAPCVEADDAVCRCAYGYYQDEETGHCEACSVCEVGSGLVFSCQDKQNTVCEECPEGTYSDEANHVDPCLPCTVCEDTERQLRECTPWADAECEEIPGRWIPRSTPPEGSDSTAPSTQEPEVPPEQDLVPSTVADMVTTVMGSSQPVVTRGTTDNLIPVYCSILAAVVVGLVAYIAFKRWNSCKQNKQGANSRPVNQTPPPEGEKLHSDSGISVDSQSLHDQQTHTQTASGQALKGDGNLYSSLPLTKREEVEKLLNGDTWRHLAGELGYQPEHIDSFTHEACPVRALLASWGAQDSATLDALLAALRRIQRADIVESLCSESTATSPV
Sequence of 120/120 rhNGF homodimer (NGF-120, full-length 120/120 nerve growth factor) (P01138 122-241 limits assumed): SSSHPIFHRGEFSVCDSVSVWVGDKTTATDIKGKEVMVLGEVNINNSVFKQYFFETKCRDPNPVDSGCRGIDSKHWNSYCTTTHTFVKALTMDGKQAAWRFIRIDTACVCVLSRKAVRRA

On to “120/120 rhNGF homodimer (NGF-120, full-length 120/120 nerve growth factor) (from UniProt P01138 122-241) (ligand)”, for which, in assay [1], the PC-12 based assay, activity relative to the 118/118 form turned out to be 60%. The same substance registered a percent as active as the 118/118 species in assay [2] of 80 to 90%.

Values taken from US20040138431A1.
